The values that follow come from patent US20230203156A1, “ANTI-MDR1 ANTIBODIES AND USES THEREOF” (KENJOCKETY BIOTECHNOLOGY, INC., priority 2020, published 2023).

The target in data set [1] is T1, human MDR1 extracellular loops 1 and 4 (ECD1, ECD4) (Homo sapiens, UniProt P08183).
T1 construct: FLAG (C); expressed in transfected cells; host or cells: 293T
Put plainly: Epitope mapping with mutant human MDR1 expressed on 293T cells (flow cytometry). Conditions: extracellular loop 1 and extracellular loop 4. The data set is classed as binding. The source says: To determine binding of anti-MDR1 mAbs listed in Table 2 to the two major extracellular loops 1 and 4 of MDR1, various mutations were constructed to alter or substitute these two loops. To examine binding to cynomolgus extracellular loops, the extracellular loop 1 and/or loop 4 of cynomolgus MDR1 were grafted (with a C-terminal FLAG tag) to substitute for the human loops in the human MDR1 using standard techniques. To examine binding dependence on the normal human loops, MDR1 variants with deletion 79-102 and deletion 82-99 in loop 1 were also generated. Loop 1 is also referred to as ECD1. Loop 4 is also referred to as ECD4. These mutant MDR1 efflux pump variants were expressed on 293T cells using standard methods to generate cells that could be used to distinguish binding of various anti-MDR1 mAbs. The different cells were incubated with different anti-MDR1 mAbs for about 1 hour at 4° C. The cells were washed twice with FACS buffer (PBS containing 0.5% BSA). Alexa647 labeled goat anti-human antibody was added as a secondary antibody, and the samples were incubated on ice for another 1 hour. Samples were washed again and analyzed by flow cytometry.
FIG. 9 summarizes the findings from preliminary epitope mapping using mutant human MDR1. […] For example, anti-MDR1 mAb B1.129 requires ECD1 and ECD4 for binding to human MDR1. All of the anti-MDR1 antibodies contact ECD4. […] ECD1 refers to the first extracellular domain of human ABCB1, ECD4 refers to the fourth extracellular domain of human ABCB1 and “others” refers to the remainder of the extracellular domains 2-3 and 5-6 of human ABCB1. Only binding to ECD1 and ECD4 was tested.
(In general: A flow cytometer gives signals particle by particle.)

Data set [2] concerns A2780 ADR ovarian carcinoma. Put plainly: A2780 ADR drug-resistant ovarian carcinoma model in nude mice. The data set is classed as in vivo. To be noted: for tumor volume, single agent: antibody as a single agent; for tumor volume, in combination with paclitaxel: antibody plus paclitaxel. On the procedure:
(§1) Anti-ABCB1 antibodies B1.129, B1.261, B1.223, B1.225, B1.188, B1.28, and B1.226 were tested for effect on growth of tumors in immunodeficient mice. The following cancer cell lines were used for generating tumor models.
A2780 ADR: The adriamycin-resistant cell line A2780ADR has been developed by exposure of the parent A2780 cell line (Sigma catalogue no. 93112519) to adriamycin. A2780ADR is cross-resistant to melphalan and vinblastine. To retain resistance adriamycin has to be added to the media. The cells grow as a monolayer and in suspension in spinner cultures and are tumorigenic in immune deficient mice. Together with the cisplatin-resistant variant A2780cis these lines only differ in their exposure to a single drug and should facilitate the search for molecular changes responsible for the expression of pleiotropic drug resistance in human ovarian cancer.
Nude mice were implanted with A2780 ADR cells to model ovarian carcinoma. Anti-B1 monoclonal antibodies are efficacious in A2780 ADR ovarian carcinoma model in nude mice.

In another data set the test system is cynomolgus MDR1. Put plainly: Antibody binding to 293T cells transfected with cynomolgus MDR1. On the procedure:
(§2) Anti-MDR1 mAb B1.129 and a humanized version thereof were assessed for binding to 293T cell line overexpressing human MDR1 or to 293T cells transfected with cynomolgus MDR1. […] B1.129.hz1 and B1.129.hz2 antibodies are the same as the humanized versions B1.129.huH1-huL1(KV3) and B1.129.huH1-huL1(KV1), respectively, listed in Table 2. FIG. 10C summarizes the binding data for the B1.129 antibody.
Anti-MDR1 mAb B1.28 and a humanized version thereof were assessed for binding to 293T cell line overexpressing human MDR1 or to 293T cells transfected with cynomolgus MDR1.

The test system of data set [3] is MES-SA DX5 uterine sarcoma. The data set is described as follows: MES-SA DX5 drug-resistant uterine sarcoma model in nude mice. The data set is classed as in vivo. On the procedure: as §1
MES-SA DX5: The multi drug-resistant cell line MES-SA/Dx5 (Sigma. 95051031) was derived from the human uterine sarcoma cell line MES-SA (Sigma Catalogue number. 95051030) which was originally obtained from a tumour from a person at the time of hysterectomy. […] Cross resistance to bleomycin, cisplatin, carmustine, 5-fluorouracil or methotrexate was not observed.
Nude mice were implanted with MES-SA DX5 cells to model uterine sarcoma. Anti-B1 monoclonal antibodies are efficacious in MES-SA DX5 uterine sarcoma model in nude mice.

The target in another data set is T2, human MDR1 (Homo sapiens, UniProt P08183).
T2 construct: expressed in transfected cells
The data set is described as follows: Antibody binding/titration to 293T cells overexpressing human MDR1 (FACS). To be noted: 293T cell line overexpressing human MDR1. On the procedure: Antibody binding to cells was evaluated by flow cytometry. 293T cells stably transfected to express human ABCB1 (293T_KPB1_OX) were washed once in flow cytometry buffer (PBS + 2% FBS + 0.02% sodium azide), resuspended at 2 x 10 \^6 cells/mL in flow cytometry buffer, and dispensed into 96-well microtiter plates at 0.1 mL/well. In the figures, “B1” refers to ABCB1 (also known as MDR1 or Pgp). Recombinant antibodies were added to cells at 5 ug/mL for initial binding confirmation, or serially diluted from 100 ug/mL in flow cytometry buffer. After incubating cells on ice for 30 min, cells were washed twice with flow cytometry buffer. Bound antibody was detected with PE-labeled F(ab′)2 fragment goat anti-human IgG (Jackson ImmunoResearch) and evaluated on an Attune NxT flow cytometer.
Binding titration of recombinant antibodies to ABCB1 transfectants was performed by 3-fold serial dilution of antibodies from 666.7 nM. Diluted antibody in flow cytometry buffer was incubated with cells on ice for 30 min. After 2 washes with flow cytometry buffer, bound antibody was detected with PE-labeled F(ab′)2 fragment goat anti-human IgG (Jackson ImmunoResearch) diluted 1:200 in flow cytometry buffer and incubated with cells for 20 min on ice. After 2 washes with flow cytometry buffer fluorescence was measured on an Attune NxT flow cytometer. Data were analyzed with GraphPad Prism 8.0 software to determine EC50′s.
as §2

Chain of cynomolgus MDR1 (as listed by the source): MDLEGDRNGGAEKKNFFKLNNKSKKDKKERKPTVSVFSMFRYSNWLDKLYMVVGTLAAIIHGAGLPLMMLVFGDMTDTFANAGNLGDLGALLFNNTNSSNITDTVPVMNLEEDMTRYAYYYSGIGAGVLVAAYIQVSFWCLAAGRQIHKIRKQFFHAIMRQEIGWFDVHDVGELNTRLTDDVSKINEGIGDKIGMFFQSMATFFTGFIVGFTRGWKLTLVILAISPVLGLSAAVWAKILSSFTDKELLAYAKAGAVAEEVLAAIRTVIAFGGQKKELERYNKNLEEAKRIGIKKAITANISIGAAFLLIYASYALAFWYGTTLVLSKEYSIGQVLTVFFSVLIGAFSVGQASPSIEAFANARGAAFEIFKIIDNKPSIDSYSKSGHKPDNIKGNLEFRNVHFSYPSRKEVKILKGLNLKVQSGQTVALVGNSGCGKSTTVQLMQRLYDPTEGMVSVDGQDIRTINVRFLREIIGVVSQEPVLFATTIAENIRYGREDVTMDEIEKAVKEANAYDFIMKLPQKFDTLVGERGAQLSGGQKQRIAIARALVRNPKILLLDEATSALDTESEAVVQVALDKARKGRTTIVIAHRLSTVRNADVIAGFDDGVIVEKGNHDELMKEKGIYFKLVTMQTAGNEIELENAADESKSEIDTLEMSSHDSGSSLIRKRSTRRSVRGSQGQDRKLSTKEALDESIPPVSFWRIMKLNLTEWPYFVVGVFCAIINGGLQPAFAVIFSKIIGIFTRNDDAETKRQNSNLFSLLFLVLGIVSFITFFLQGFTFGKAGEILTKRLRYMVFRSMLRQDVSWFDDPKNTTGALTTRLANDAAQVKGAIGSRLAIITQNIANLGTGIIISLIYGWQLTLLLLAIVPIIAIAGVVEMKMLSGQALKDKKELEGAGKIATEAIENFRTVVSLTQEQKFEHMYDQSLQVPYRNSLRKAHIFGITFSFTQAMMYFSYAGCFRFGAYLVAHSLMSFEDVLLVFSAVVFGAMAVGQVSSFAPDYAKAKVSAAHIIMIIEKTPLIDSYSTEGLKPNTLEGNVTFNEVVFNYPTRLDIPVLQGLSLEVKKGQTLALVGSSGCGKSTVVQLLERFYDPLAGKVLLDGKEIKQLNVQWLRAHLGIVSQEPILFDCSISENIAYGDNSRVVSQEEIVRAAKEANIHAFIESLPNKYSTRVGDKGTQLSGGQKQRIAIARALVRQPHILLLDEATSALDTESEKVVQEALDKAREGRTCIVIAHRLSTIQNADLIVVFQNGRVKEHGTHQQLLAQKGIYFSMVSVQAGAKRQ

B1: B1-open.273(A): anti-MDR1 antibody, Mouse; VH SEQ ID NO:155, VL SEQ ID NO:159 (antibody, listed as Mus musculus, V domains shown)
VH: QVQLQQSGPELVKTGASVKISCKASGYSFSNYYIHWVKQSHGKSLEWIGFISCYNGATFYNQKFKGKATFTVDTSSSTAYMKFNSLTFEDSAVYYCARLPIQFGNFYPMDYWGQGTSVTVSS
VL: QIVLTQSPAIMSASLGERVTMTCTASSSVSSSYLHWYQQKPGSSPKLWIYSTSNLASGVPARFSGSGSGTSYSLTISSMEAEDAATYYCHQYHRSPPTFGAGTKLELK
As to B1, the “epitope on human MDR1” value in data set [1] was “bind to an epitope comprising extracellular loop 1 and extracellular loop 4”.

B2: B1.261: anti-MDR1 antibody, Mouse; VH SEQ ID NO:118, VL SEQ ID NO:122 (antibody, listed as Mus musculus, V domains shown)
VH: QVQLKESGPGLVAPSQSLSITCTVSGFSLTSYGVHWVRQPPGKGLEWLVVIWSDGSTTYNSALKSRLSISKDNSKSQVFLKMNSLQIDDTAMYYCARHGRWLLQRGGAMDYWGQGTSVTVSS
VL: DVVMTQAPKFMSTSVGDRVSVTCRASQNVGSYIAWYQQKLGQSPKALIYSASYRCSGVPDRFTGSGAGTDFTLTIRNVQSEDLAEYFCQQYNSYPLTFGGGTKLEIK
Turning to B2, in data set [2], the “tumor volume, single agent” value is “decreased tumor volume” and the “tumor volume, in combination with paclitaxel” value is given as “decreased tumor volume”. Besides, the “binding to cynomolgus MDR1 (cB1)” value in the data set on cynomolgus MDR1 is “bind to hB1 and cB1”. Further, the “tumor volume / tumor growth, single agent” value in data set [3] (MES-SA DX5, nude mice, antibody as a single agent) is given as “decreased tumor volume”. Also, in data set [3] (MES-SA DX5, nude mice, antibody plus paclitaxel), the “tumor volume / tumor growth, in combination with paclitaxel” value is “decreased tumor volume”. Moreover, in data set [3] (MES-SA DX5 tumors in vivo), the “sensitization of MES-SA DX5 uterine sarcoma to paclitaxel” value was “sensitized”. In addition, the “binding to human MDR1 (hB1)” value with human MDR1 is “bind to hB1 and cB1”.

B3: B1.129.huH1-huL1(KV3): humanized B1.129; VH SEQ ID NO:63, VL SEQ ID NO:64 (antibody, V domains shown)
VH: EVQLVQSGAEVKKPGASVKVSCKASGYTFSTYVIHWVRQAPGQGLEWIGYIYPYNDYTKYNEKFKDRATLTSDKSTSTAYMELRSLRSDDTAVYYCSRAYYGNLVGYGVDYWGQGTTVTVSS
VL: EIVLTQSPATLSLSPGERATLSCRASSSVSFIYWYQQKPGQSPRPWIFATSNLASGVPARFSGSGSGTDYTLTISSLEPEDFAVYYCHQWGSNLPTFGGGTKLEIK
modifications: humanized sequence
With B3, the “binding to cynomolgus MDR1 (cB1)” value in the data set with cynomolgus MDR1 was “binds to both hB1 and cB1 with a lower affinity”. Further, the “binding to human MDR1 (hB1)” value with human MDR1 was “binds to both hB1 and cB1 with a lower affinity”.

B4: B1.129.huH1-huL1(KV1): humanized B1.129; VH SEQ ID NO:63, VL SEQ ID NO:65 (antibody, V domains shown)
VH: EVQLVQSGAEVKKPGASVKVSCKASGYTFSTYVIHWVRQAPGQGLEWIGYIYPYNDYTKYNEKFKDRATLTSDKSTSTAYMELRSLRSDDTAVYYCSRAYYGNLVGYGVDYWGQGTTVTVSS
VL: DIQLTQSPSSLSASVGDRVTITCRASSSVSFIYWYQQKPGKSPKPWIFATSNLASGVPSRFSGSGSGTDYTLTISSLQPEDFATYYCHQWGSNLPTFGGGTKLEIK
modifications: humanized sequence
Regarding B4, in the data set with cynomolgus MDR1, the “binding to cynomolgus MDR1 (cB1)” value was “did not show significant binding”. The “binding to human MDR1 (hB1)” value in the data set with human MDR1 is given as “did not show significant binding”.

B5: B1.28: anti-MDR1 antibody, Mouse; VH SEQ ID NO:14, VL SEQ ID NO:18 (antibody, listed as Mus musculus, V domains shown)
VH: EVKLVESGGGLVKPGGSLKLSCAASGFTFGLYTMSWVRQTPERRLEWVATISSGGSNTYYPDSVKGRFTISRDNAKNNLFLQMNSLRSEDTALYYCARYYRYDAWFAYWGQGTLVTVSS
VL: DVLLTQTPLSLPVSLGDQASISCRSSQNIVHSTGNTYLDWYLQKPGQSPKLLIYKVSNRFSGVPDRFSGSGSGTDFTLKISRVEAEDLGVYFCFQGSHIPRTFGGGTKLEIK
For the molecule B5, in data set [2], the “tumor volume, single agent” value is “decreased tumor volume” and the “tumor volume, in combination with paclitaxel” value is “decreased tumor volume”. In the data set with cynomolgus MDR1, the “binding to cynomolgus MDR1 (cB1)” value is “binds to both hB1 and cB1”. Also, the “binding to human MDR1 (hB1)” value with human MDR1 is “binds to both hB1 and cB1”.

B6: B1.207: anti-MDR1 antibody, Mouse; VH SEQ ID NO:74, VL SEQ ID NO:76 (antibody, listed as Mus musculus, V domains shown)
VH: GVQLVESGGALVKPGGSLKLSCAASGFTFSNYAMSWVRQTPEKRLEWVATISSGGSYTYYPDSVKGRFTISRDNAKTTLYLQMSGLRSEDTALYYCAKYSNYGRFASWGQGTLVTVST
VL: DVLMTQTPLSLPVSLGDQASISCRSSQSIVHSSGNTYLEWYLQKPGQSPRLLIYKVSNRFFGVPDRISGSGSGTDFTLRISRVEAEDLGVYYCFQGSHVPYTFGGGTKLEIK
For the molecule B6, in data set [1], the “epitope on human MDR1” value was “bind to an epitope comprising extracellular loop 1 and extracellular loop 4”.

B7: B1.201: anti-MDR1 antibody, Mouse; VH SEQ ID NO:92, VL SEQ ID NO:95 (antibody, listed as Mus musculus, V domains shown)
VH: EVQLVESGGALMKPGGSLKFSCAASGFTFTNYAMSWVRQTPEKRLEWVATISSGGSNTYYSDSVKGRFTISRDNAKTTLYLQMSGLRSEDTALYYCAKFSNFGRFASWGQGTLVTVSA
VL: DVLMTQTPLSLPVSLGDQASISCRFSQSIVHSSGNTYLEWYLQKPGQSPRLLIYKVSNRFFGVPDRISGSGSGTDFTLRISRVEAEDLGVYYCFQGSHVPYTFGGGTKLEIK
Regarding B7, the “epitope on human MDR1” value in data set [1] was “bind to an epitope comprising extracellular loop 1 and extracellular loop 4”.
